According to paper PMC10397247:
Each block holds one binder with its values, some of them ahead of it.

Experiments:
Core_NNIN-es_KKEE = target: T1, Core_NNIN-es_KKEE; assay: two-hybrid library CCmax; details: mean of both orientations;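 also: natural log of median RNA to DNA barcode read ratio; higher means stronger binding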
T1 chain: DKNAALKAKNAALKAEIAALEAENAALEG

4H1000-AA = target: T2, 4H1000-AA; assay: two-hybrid library CCmax;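 also: natural log of median RNA to DNA barcode read ratio; higher means stronger binding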
T2 chain: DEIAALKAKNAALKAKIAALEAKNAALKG

4H1035-AA = target: T3, 4H1035-AA; assay: two-hybrid library CCmax; details: mean of both orientations;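 also: natural log of median RNA to DNA barcode read ratio; higher means stronger binding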
T3 chain: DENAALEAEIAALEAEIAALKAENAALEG

4H1064-AA = target: T4, 4H1064-AA; assay: two-hybrid library CCmax; details: mean of both orientations;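 also: natural log of median RNA to DNA barcode read ratio; higher means stronger binding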
T4 chain: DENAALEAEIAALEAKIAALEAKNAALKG

4H1109-AA = target: T5, 4H1109-AA; assay: two-hybrid library CCmax; details: mean of both orientations;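 also: natural log of median RNA to DNA barcode read ratio; higher means stronger binding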
T5 chain: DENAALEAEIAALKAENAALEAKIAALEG

4H1146-AA = target: T6, 4H1146-AA; assay: two-hybrid library CCmax; details: mean of both orientations;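 also: natural log of median RNA to DNA barcode read ratio; higher means stronger binding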
T6 chain: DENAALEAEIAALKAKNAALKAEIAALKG

4H1348-AA = target: T7, 4H1348-AA; assay: two-hybrid library CCmax; details: mean of both orientations
T7 chain: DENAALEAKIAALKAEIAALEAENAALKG

4H1391-AA = target: T8, 4H1391-AA; assay: two-hybrid library CCmax; details: mean of both orientations
T8 chain: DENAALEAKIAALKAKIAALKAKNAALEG

4H146-AA = target: T9, 4H146-AA; assay: two-hybrid library CCmax; details: mean of both orientations
T9 chain: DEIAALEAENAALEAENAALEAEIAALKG

4H1809-AA = target: T10, 4H1809-AA; assay: two-hybrid library CCmax; details: mean of both orientations
T10 chain: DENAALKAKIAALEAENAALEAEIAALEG

4H1854-AA = target: T11, 4H1854-AA; assay: two-hybrid library CCmax; details: mean of both orientations
T11 chain: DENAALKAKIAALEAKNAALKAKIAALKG

4H189-AA = target: T12, 4H189-AA; assay: two-hybrid library CCmax; details: mean of both orientations
T12 chain: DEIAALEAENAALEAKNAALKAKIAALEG

4H2248-AA = target: T13, 4H2248-AA; assay: two-hybrid library CCmax
T13 chain: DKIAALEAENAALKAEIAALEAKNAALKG

4H2283-AA = target: T14, 4H2283-AA; assay: two-hybrid library CCmax; details: mean of both orientations
T14 chain: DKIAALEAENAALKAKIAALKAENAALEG

4H2580-AA = target: T15, 4H2580-AA; assay: two-hybrid library CCmax
T15 chain: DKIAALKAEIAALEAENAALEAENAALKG

4H2713-AA = target: T16, 4H2713-AA; assay: two-hybrid library CCmax; details: mean of both orientations
T16 chain: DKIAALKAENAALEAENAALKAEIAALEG

4H2742-AA = target: T17, 4H2742-AA; assay: two-hybrid library CCmax; details: mean of both orientations
T17 chain: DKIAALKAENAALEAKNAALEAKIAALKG

4H2948-AA = target: T18, 4H2948-AA; assay: two-hybrid library CCmax; details: mean of both orientations
T18 chain: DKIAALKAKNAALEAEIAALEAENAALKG

4H2991-AA = target: T19, 4H2991-AA; assay: two-hybrid library CCmax; details: mean of both orientations
T19 chain: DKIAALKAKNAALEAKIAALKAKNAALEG

4H3029-AA = target: T20, 4H3029-AA; assay: two-hybrid library CCmax; details: mean of both orientations
T20 chain: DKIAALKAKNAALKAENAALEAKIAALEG

4H3066-AA = target: T21, 4H3066-AA; assay: two-hybrid library CCmax; details: mean of both orientations
T21 chain: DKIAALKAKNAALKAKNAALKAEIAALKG

4H3102-AA = target: T22, 4H3102-AA; assay: two-hybrid library CCmax; details: mean of both orientations
T22 chain: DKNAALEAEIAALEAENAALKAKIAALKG

4H3121-AA = target: T23, 4H3121-AA; assay: two-hybrid library CCmax; details: mean of both orientations
T23 chain: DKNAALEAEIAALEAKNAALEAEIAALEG

4H3417-AA = target: T24, 4H3417-AA; assay: two-hybrid library CCmax; details: mean of both orientations
T24 chain: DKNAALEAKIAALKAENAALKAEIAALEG

4H3446-AA = target: T25, 4H3446-AA; assay: two-hybrid library CCmax; details: mean of both orientations
T25 chain: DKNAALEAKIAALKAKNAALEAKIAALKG

4H3591-AA = target: T26, 4H3591-AA; assay: two-hybrid library CCmax; details: mean of both orientations
T26 chain: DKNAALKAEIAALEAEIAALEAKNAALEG

4H3628-AA = target: T27, 4H3628-AA; assay: two-hybrid library CCmax; details: mean of both orientations
T27 chain: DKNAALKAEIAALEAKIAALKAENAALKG

4H3666-AA = target: T28, 4H3666-AA; assay: two-hybrid library CCmax; details: mean of both orientations
T28 chain: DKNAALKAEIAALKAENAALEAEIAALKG

4H3709-AA = target: T29, 4H3709-AA; assay: two-hybrid library CCmax; details: mean of both orientations
T29 chain: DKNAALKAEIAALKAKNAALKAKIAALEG

4H391-AA = target: T30, 4H391-AA; assay: two-hybrid library CCmax; details: mean of both orientations
T30 chain: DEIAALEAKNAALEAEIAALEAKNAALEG

4H3920-AA = target: T31, 4H3920-AA; assay: two-hybrid library CCmax; details: mean of both orientations
T31 chain: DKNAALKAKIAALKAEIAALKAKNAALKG

4H3939-AA = target: T32, 4H3939-AA; assay: two-hybrid library CCmax; details: mean of both orientations
T32 chain: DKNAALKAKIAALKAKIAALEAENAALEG

4H428-AA = target: T33, 4H428-AA; assay: two-hybrid library CCmax; details: mean of both orientations
T33 chain: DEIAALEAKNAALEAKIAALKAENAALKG

4H478-AA = target: T34, 4H478-AA; assay: two-hybrid library CCmax; details: mean of both orientations
T34 chain: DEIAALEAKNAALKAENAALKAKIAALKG

4H497-AA = target: T35, 4H497-AA; assay: two-hybrid library CCmax; details: mean of both orientations
T35 chain: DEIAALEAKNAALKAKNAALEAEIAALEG

4H656-AA = target: T36, 4H656-AA; assay: two-hybrid library CCmax
T36 chain: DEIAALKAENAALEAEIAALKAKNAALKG

4H675-AA = target: T37, 4H675-AA; assay: two-hybrid library CCmax; details: mean of both orientations
T37 chain: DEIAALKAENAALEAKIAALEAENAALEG

4H971-AA = target: T38, 4H971-AA; assay: two-hybrid library CCmax; details: mean of both orientations
T38 chain: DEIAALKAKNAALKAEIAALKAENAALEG

4H1046-bA = target: T39, 4H1046-bA; assay: two-hybrid library CCNG1; details: mean of both orientations
T39 chain: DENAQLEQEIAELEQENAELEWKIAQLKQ

4H1072-bA = target: T40, 4H1072-bA; assay: two-hybrid library CCNG1
T40 chain: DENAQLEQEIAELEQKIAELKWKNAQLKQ

4H2568-bA = target: T41, 4H2568-bA; assay: two-hybrid library CCNG1
T41 chain: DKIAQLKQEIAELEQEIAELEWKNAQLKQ

4H2619-bA = target: T42, 4H2619-bA; assay: two-hybrid library CCNG1
T42 chain: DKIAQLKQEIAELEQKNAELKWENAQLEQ

4H2745-bA = target: T43, 4H2745-bA; assay: two-hybrid library CCNG1
T43 chain: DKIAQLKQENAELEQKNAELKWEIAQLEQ

4H344-bA = target: T44, 4H344-bA; assay: two-hybrid library CCNG1
T44 chain: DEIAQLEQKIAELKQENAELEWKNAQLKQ

4H363-bA = target: T45, 4H363-bA; assay: two-hybrid library CCNG1
T45 chain: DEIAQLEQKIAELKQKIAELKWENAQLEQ

4H3907-bA = target: T46, 4H3907-bA; assay: two-hybrid library CCNG1
T46 chain: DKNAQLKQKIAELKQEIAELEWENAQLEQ

4H3961-bA = target: T47, 4H3961-bA; assay: two-hybrid library CCNG1; details: mean of both orientations
T47 chain: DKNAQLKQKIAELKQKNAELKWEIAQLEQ

4H470-bA = target: T48, 4H470-bA; assay: two-hybrid library CCNG1
T48 chain: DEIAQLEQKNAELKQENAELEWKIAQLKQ

Core_NNNN-es_KEKE = target: T49, Core_NNNN-es_KEKE; assay: two-hybrid library CCmax; details: mean of both orientations
T49 chain: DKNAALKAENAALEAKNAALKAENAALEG

Binder: DEIAALKAKNAALKAKIAALEAKNAALKG [4H1000-AA]
interaction score (4H1000-AA): -0.42
interaction score (4H1035-AA): -1.26
interaction score (4H1064-AA): -0.567
interaction score (4H1109-AA): 1.3
interaction score (4H1146-AA): -1.52
interaction score (4H1348-AA): -1.24
interaction score (4H1391-AA): -1.56
interaction score (4H146-AA): -0.33
interaction score (4H1809-AA): 0.471
interaction score (4H1854-AA): -1.79
interaction score (4H189-AA): -0.933
interaction score (4H2248-AA): -1.32
interaction score (4H2283-AA): 0.468
interaction score (4H2580-AA): -1.04
interaction score (4H2713-AA): -1.49
interaction score (4H2742-AA): -1.09
interaction score (4H2948-AA): 0.224
interaction score (4H2991-AA): -1.19
interaction score (4H3029-AA): -0.99
interaction score (4H3066-AA): -1.96
interaction score (4H3102-AA): -0.226
interaction score (4H3121-AA): -0.524
interaction score (4H3417-AA): -0.644
interaction score (4H3446-AA): -1.24
interaction score (4H3591-AA): -0.703
interaction score (4H3628-AA): -1.21
interaction score (4H3666-AA): 0.777
interaction score (4H3709-AA): -1.07
interaction score (4H391-AA): 0.223
interaction score (4H3920-AA): -1.89
interaction score (4H3939-AA): -1.65
interaction score (4H428-AA): -0.137
interaction score (4H478-AA): -2.48
interaction score (4H497-AA): -1.74
interaction score (4H656-AA): 0.604
interaction score (4H675-AA): 2.34
interaction score (4H971-AA): -0.95

Binder: DENAQLEQEIAELEQENAELEWKIAQLKQ [4H1046-bA]
interaction score (4H1046-bA): -0.316
interaction score (4H1072-bA): -0.435
interaction score (4H2568-bA): -1.17
interaction score (4H2619-bA): -0.535
interaction score (4H2745-bA): 0.103
interaction score (4H344-bA): -0.743
interaction score (4H363-bA): 0.269
interaction score (4H3907-bA): -0.392
interaction score (4H3961-bA): 1.98
interaction score (4H470-bA): 0.412

Continued, values first:

interaction score (Core_NNIN-es_KKEE): 1.83
Binder: DENAALEAENAALEAKIAALKAKNAALKG [Core_NNIN-es_EEKK]

interaction score (Core_NNNN-es_KEKE): -0.668
Binder: DENAALEAKNAALKAENAALEAKNAALKG [Core_NNNN-es_EKEK]
